Data from US20210046160A1 (Synthorx, Inc., priority 2019, published 2021).

Key:
[1] = target: T1, IL-2 receptor αβγ complex (Homo sapiens, UniProt P01589+P14784+P31785); experiment: PathHunter IL-2 Cytokine Receptor assay, agonist mode, cell line further expressing IL-2Rα; type: cell-based; conditions: IL2Rα-positive U2OS cell line; 10 kD PEGylated conjugates, * = 30 kD
T1 construct: host or cells: recombinant human U2OS cell line (PathHunter), further engineered to express IL-2Rα
T1 sequence (P01589 22-272): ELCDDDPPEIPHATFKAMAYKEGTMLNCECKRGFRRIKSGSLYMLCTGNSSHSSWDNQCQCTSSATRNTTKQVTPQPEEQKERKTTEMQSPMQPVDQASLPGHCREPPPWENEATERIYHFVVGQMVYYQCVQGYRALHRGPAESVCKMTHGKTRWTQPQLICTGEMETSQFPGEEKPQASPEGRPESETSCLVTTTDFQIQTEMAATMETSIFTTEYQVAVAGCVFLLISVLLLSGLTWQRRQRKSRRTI
T1 sequence (P14784 27-551): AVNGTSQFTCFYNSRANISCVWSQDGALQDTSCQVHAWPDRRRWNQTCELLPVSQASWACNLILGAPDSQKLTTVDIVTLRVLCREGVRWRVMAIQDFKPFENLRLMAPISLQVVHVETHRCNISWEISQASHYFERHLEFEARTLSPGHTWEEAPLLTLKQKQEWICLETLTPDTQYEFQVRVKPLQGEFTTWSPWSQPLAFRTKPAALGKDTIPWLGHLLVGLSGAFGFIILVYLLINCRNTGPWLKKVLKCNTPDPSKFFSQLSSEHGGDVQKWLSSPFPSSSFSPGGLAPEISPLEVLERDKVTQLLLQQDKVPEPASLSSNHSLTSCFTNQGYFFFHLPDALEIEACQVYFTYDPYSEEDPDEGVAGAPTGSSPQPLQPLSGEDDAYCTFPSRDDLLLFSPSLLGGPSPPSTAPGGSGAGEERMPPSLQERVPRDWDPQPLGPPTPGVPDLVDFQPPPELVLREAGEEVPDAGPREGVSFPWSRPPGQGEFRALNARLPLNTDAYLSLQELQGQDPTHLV
T1 sequence (P31785 23-369): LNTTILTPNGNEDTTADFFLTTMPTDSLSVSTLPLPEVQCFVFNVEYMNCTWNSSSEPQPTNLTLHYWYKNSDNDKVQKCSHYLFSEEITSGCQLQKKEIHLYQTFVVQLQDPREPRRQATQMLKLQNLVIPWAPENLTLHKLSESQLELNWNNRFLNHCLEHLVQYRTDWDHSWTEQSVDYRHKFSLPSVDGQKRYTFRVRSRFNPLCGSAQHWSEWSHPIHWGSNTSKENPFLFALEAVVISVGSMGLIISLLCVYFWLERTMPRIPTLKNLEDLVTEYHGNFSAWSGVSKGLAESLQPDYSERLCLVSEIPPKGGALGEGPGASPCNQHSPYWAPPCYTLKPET
Protocol: (§1) PathHunter cell lines were expanded from freezer stocks according to standard procedures. Cells were seeded in a total volume of 20 μL into white walled, 384-well microplates and incubated for the appropriate time prior to testing.
(§2) For agonist determination, cells were incubated with sample to induce response. Intermediate dilution of sample stocks was performed to generate 5× sample in assay buffer. About 5 μL of 5× sample was added to cells and incubated at 37° C. for 6 to 16 hours depending on the assay. Vehicle concentration was 1%.
(§3) Assay signal was generated through a single addition of 12.5 or 15 μL (50% v/v) of PathHunter Detection reagent cocktail for agonist and antagonist assays respectively, followed by a one hour incubation at room temperature. For some assays, activity was detected using a high sensitivity detection reagent (PathHunter Flash Kit) to improve assay performance. In these assays, an equal volume of detection reagent (25 or 30 μL) was added to the wells, followed by a one hour incubation at room temperature. Microplates were read following signal generation with a PerkinElmer Envision™ instrument for chemiluminescent signal detection.
(§4) Compound activity was analyzed using CBIS data analysis suite (ChemInnovation, CA). For agonist mode assays, percentage activity was calculated using the following Formula:
(§5) % Activity=100%×(mean RLU of test sample−mean RLU of vehicle control)/(mean MAX RLU control ligand−mean RLU of vehicle control).
(§6) A second cell line has been further engineered to express the IL-2Rα subunit. […] The assay was run in agonist mode to determine the EC50 of each test article, and comparison of dose-response curve profiles between IL2Rα positive and negative cell types allows determination of the contribution of IL2Rα to the observed activity.

[2] = target: T2, IL-2 receptor βγ complex (IL-2Rβ and IL-2Rγ subunits) (Homo sapiens, UniProt P14784+P31785); experiment: PathHunter IL-2 Cytokine Receptor assay, agonist mode, βγ cell line; type: cell-based; conditions: for EC50: IL2Rα-negative U2OS cell line, 10 kD PEGylated conjugates, * = 30 kD; for βγ/αβγ ratio: ratio of the EC50 values
T2 construct: host or cells: recombinant human U2OS cell line (PathHunter)
T2 sequence (P14784 27-551): T1 sequence (P14784 27-551)
T2 sequence (P31785 23-369): T1 sequence (P31785 23-369)
Protocol: as §1, §2, §3, §4, §5, §6

[3] = MTD / toxicology study E3826-U1802 in naïve Balb/c mice (hematology, histopathology, organ weight, cytokines); type: in vivo; conditions: Balb/c mice
Protocol: A dose ranging study of P65_30kD was conducted in naïve female Balb/c mice at Crown Biosciences, Inc. (San Diego, Calif.). […] Blood samples were drawn via sub mandibular vein at 8 time points (0.25, 1, 4, 12, 24, 34, 48 & 72 h).
A major of toxicity associated with high-dose aldesleukin is vascular leak syndrome and associated Cytokine Release Syndrome (CRS). […] The analysis performed was hematology, histopathology, organ weight, and cytokine analyses.

[4] = PK study E3826-U1704 in naïve C57BL/6 mice (human IL-2 ELISA of plasma); type: in vivo; conditions: for t½: 0.3 mg/kg
Protocol: (§7) Terminal blood samples were collected via cardiac puncture at the points indicated. […] Plasma and blood cells (in both studies) and tumors in study E3826-U1803 were collected for PK and PD analyses.
Bioanalysis of plasma samples was performed using a qualified human IL-2 ELISA assay (Abcam, Cambridge, UK). Concentrations of Aldesleukin, E62_30kD and P65_30kD and the internal standard in samples derived from plasma were determined using an ELISA assay. […] The PK data were imported into Phoenix WinNonlin v6.4 (Certara/Pharsight, Princeton, N.J.) for analysis. The group mean plasma concentration versus time data were analyzed with noncompartmental methods using an IV bolus administration model.

[5] = test system: pSTAT5 and proliferation in CD8+ T, NK and Treg cells; experiment: Pharmacodynamics in peripheral blood compartment (pSTAT5, Ki-67, cell counts), Example 5; type: in vivo, C57BL/6 mice; conditions: mice
Source text: as §7
STAT5 phosphorylation and induction of cell proliferation (the early molecular marker Ki-67 and cell counts) was used as pharmacodynamics readouts to assess the pharmacological profile of P65_30kD relative to its pharmacokinetics.

[6] = C57BL/6 female mice, single IV bolus 0.3 mg/kg, E62_5 kD from a separate study

“E62: Table 2: 10 kD PEGylated IL-2 conjugate at site E62 [Compound E62]” showed an EC50 [1] of 1.5 nM, an EC50 [2] of 3 nM and a βγ/αβγ ratio [2] of 2.
Work on “E68: Table 2: 10 kD PEGylated IL-2 conjugate at site E68 [Compound E68]” yielded an EC50 [1] of 0.0893 nM, an EC50 [2] of 7.7 nM and a βγ/αβγ ratio [2] of 86.
In the case of “F42: Table 2: 10 kD PEGylated IL-2 conjugate at site F42 [Compound F42]”, the EC50 [1] is reported as 0.515 nM, the EC50 [2] is reported as 6.09 nM and the βγ/αβγ ratio [2] is reported as 12.
Work on “K35: Table 2: 10 kD PEGylated IL-2 conjugate at site K35 [Compound K35]” yielded an EC50 [1] of 0.15 nM, an EC50 [2] of 6.75 nM and a βγ/αβγ ratio [2] of 45.
For “K43: Table 2: 10 kD PEGylated IL-2 conjugate at site K43 [Compound K43]”, the EC50 [1] was 0.131 nM, the EC50 [2] was 9.84 nM and the βγ/αβγ ratio [2] was 75.
With “R38: Table 2: 10 kD PEGylated IL-2 conjugate at site R38 [Compound R38]” the EC50 [1] was 0.165 nM, the EC50 [2] was 4.16 nM and the βγ/αβγ ratio [2] was 25.
With “T41: Table 2: 10 kD PEGylated IL-2 conjugate at site T41 [Compound T41]” the EC50 [1] was 0.0489 nM, the EC50 [2] was 6.37 nM and the βγ/αβγ ratio [2] was 130.
In the case of “V69: Table 2: 30 kD PEGylated IL-2 conjugate at site V69 [Compound V69]”, the EC50 [1] is reported as 0.083 nM, the EC50 [2] is reported as 9.99 nM and the βγ/αβγ ratio [2] is reported as 121.
Work on “Y45: Table 2: 30 kD PEGylated IL-2 conjugate at site Y45 [Compound Y45]” yielded an EC50 [1] of 0.11 nM, an EC50 [2] of 9.06 nM and a βγ/αβγ ratio [2] of 83.
With aldesleukin [reference compound] the “systemic levels of IFNγ” value [3] was “transient elevation”, the “plasma IL-5 levels” value ([3]; dose range 0.01-5.0 mg/kg) was “elevated plasma IL-5 levels starting at 1 mg/kg to 5 mg/kg” and the “hematology, histopathology or body weights relative to vehicle control” value ([3]; P65_30kD single IV 0.01-5.0 mg/kg, aldesleukin IV BID × 3) was “Abnormalities were not observed”. It also gave an AUC0-t [4, 6] of 229 ng·h/mL, an AUCINF [4, 6] of 230 ng·h/mL and a CL [4, 6] of 1300 mL/h/kg. The Cmax [4, 6] was 884 ng/mL, the Tmax [4, 6] was 1.8 min and the “Vss (distribution volume)” value [4, 6] was 390 mL/kg. The t½ [4, 6] was 34.4 min, the t½ ([4]; C57BL/6 female mice, single IV bolus 0.3 mg/kg, E62_5 kD from a separate study, listed as aldesleukin) was 34.2 min and the “mean plasma concentrations measurable out to (post-dose)” value ([4]; single IV bolus, 120 h = last measured time point) was 4 h. For the same substance, the “pSTAT5 induction returned to baseline after” value [5] was 2 h.
